Experiment: soluble fraction after stress (log2 fold change); higher = more stays soluble; pooled small domains, quantitative proteomics
Conditions: stress: 75 degC
With “HMAQSLAQKINNYILTNRSSIANVAKSIGYSRTTVSRYLAGKYDSDPTDLENKLAEFLAHETGE” the “soluble fraction (log2)” value was -0.253.
With “HMAQTEIIRVTKDIKKGDAITADKFEKVKVGAYNLPGNVVKNADELKGKFAAADLVRGDYILTSKLTDNP” the “soluble fraction (log2)” value was 0.183.
With “HMAQVRSTVERRENGTYTVELNLNDDVDNVMRLQLMVATKEMAEDLAQRFQKNPEQVYSQLVTALYG” the “soluble fraction (log2)” value was -0.723.
With “HMAQVSDDAELEKWADTAIDEHPKPVEEYRAGNAASINFLMGQVMKMSRGKANPGAVMQILKQKLD” the “soluble fraction (log2)” value was 0.0191.
In the case of “HMAQVSDTGAIAKIVADAIAANPKQVQQYLDGNEKVLMYLVGQVMKLSKGKANPPMVIQLLKEQLG”, the “soluble fraction (log2)” value is reported as -0.125.
For “HMAQVSDTGELEGVVDGVLAANAKSVADFQAGKENAFQYLIGQVMKETKGKANPEVVATLLRTKLS”, the “soluble fraction (log2)” value was -0.523.
In the case of “HMARAGKLAQDMAVWTKETMLNTERNFISLRHFKRELLRRTLAPGESEQTVRAMEEAGYIQVKDGLVFPIK”, the “soluble fraction (log2)” value is reported as -2.43.
With “HMAREQISVSQMVRDVRDGQVKNIEVLGQELRLSYADGSQKVTRKEEGQQALEILFASDIDLAALDLEVQ” the “soluble fraction (log2)” value was -0.0792.
For “HMARIDYHAMDSDDLSFSEGELLEIYDKPGSFWWKGRSLVSGDEGDIPS”, the “soluble fraction (log2)” value was -0.0708.
For “HMARKFQKDTGYLNKKERTWLLDFFPSLKKYLYTGAYIRSIIVVESNVTYTDKELPSNYTFTYKFA”, the “soluble fraction (log2)” value was -0.522.
For “HMARKISVEALGKYFPNSPMLAAAVAVTGVMKKDEFIHEMRASYKHKFAKKPEVIDGNMKALTMTFEA”, the “soluble fraction (log2)” value was 0.11.
For “HMARNHYETLGVGRTATGDEIRKAYRSEAQKHHPDRGGDAERMQSLNEARDTLLDDQARAAYDQELDL”, the “soluble fraction (log2)” value was 0.154.
In the case of “HMARPLLSPREQDVLALIARGFSYSEVARLQAVTVHTIRTHIRNLYAKLSVHSKTEAVFEATRMGLLP”, the “soluble fraction (log2)” value is reported as -1.94.
In the case of “HMARRKRDIDSDINVKVFEHWLDNLDSASRESFSAFAEETFSPIQVYLYAKFLGYESSIIAVDHWVAVAYP”, the “soluble fraction (log2)” value is reported as 0.135.
In the case of “HMARSVAEFVERGRSGGSLERPKLQRMLEYIQDRPVDFVIVHKIDRLARNRADDAAITKTIRGAGAYLVST”, the “soluble fraction (log2)” value is reported as 0.1.
For “HMARTGSEELVGALATVREPLAPWGQVFVQGALWRARSADGGPVDAGQQVVVRAVEGLTLVVEPRD”, the “soluble fraction (log2)” value was -0.143.
In the case of “HMARYSMLEEQLLQLINKHGTMSTPKLVEATGAPRSTVTYQLRKLLESGTIERTQPARSPKQSYRIKS”, the “soluble fraction (log2)” value is reported as -0.416.
In the case of “HMASATGVVTAASLNVRSGAGTNYSVVNTLAKGTKVTVLNTADGWYEIEATVNNEKITGYVSATYIAMD”, the “soluble fraction (log2)” value is reported as -0.538.
For “HMASLSRRELEVLELLALRLTVKEVAERLVISELTAKRHTSNIYQKLGVNRRRDALAAAQARGLLGAR”, the “soluble fraction (log2)” value was -3.18.
For “HMASRSQTEIMHLLSSGLPKHELVTALQSLLGISKPTAYKYLSQDVSIAYDHMVKILEYPPFQRVLYQ”, the “soluble fraction (log2)” value was -1.93.
For “HMASSVKAPLPGVILDIKVKVGDTIKNGDTVVILEAMKMENNIHSDKDGVVKSIEVNKGDSVLEGATLLTI”, the “soluble fraction (log2)” value was 0.33.
With “HMASVDDILDRFKQAAKVTTDADLAKVLGLSRQSIAAARLRAKIPASWFPKMSSLFNISTEWLYRG” the “soluble fraction (log2)” value was -1.18.
In the case of “HMASVRPVAPPDPKTHTRLTYRIRRGDTLERIGRRYRVSIAEIQAWNTLRDPGDILAGQRLVIWIPTS”, the “soluble fraction (log2)” value is reported as -2.33.
In the case of “HMATAPQIRAIYALGSKLGINQNSREDNLHQLVYSITGKESIKGLTNYEAARVQSELANMERK”, the “soluble fraction (log2)” value is reported as 0.323.
With “HMATEPLQPRVEVLGSTLATTNGARIVGVYDMSGREVSATQLSKGVYIVKVTNGSVTATQKVFI” the “soluble fraction (log2)” value was -0.477.
For “HMATETMGMIIRRLRREHGLTQEELAASIGVTAQAVSKWEKDLGMPDISQIVPLAGAFNVRTDVLFGLE”, the “soluble fraction (log2)” value was -2.65.
In the case of “HMATEWLSSKEAAQRLGVSAATLYAYVSRGLLRSEGSSGQRERRYRADDVAQLRRRREVGRKAESIAASTL”, the “soluble fraction (log2)” value is reported as -1.31.
For “HMATHWHITPNPNNGKFLISGLMQDDSFHLMDASGQWLRQLRTVNQELDLDLQPGVYFLKDNSGSVMKFVV”, the “soluble fraction (log2)” value was -1.13.
In the case of “HMATIADILAEHKDKEGPLLPVLHDVQKMFGHVSEEAMREIAQALNLTRAEVYGVVSFYHDFRKEVE”, the “soluble fraction (log2)” value is reported as -1.46.
With “HMATIIGSIGIVTQKVGLTGVPGRVYVNNESWAAISANGKEIENDTQVIVVKIDGATLIIEKKG” the “soluble fraction (log2)” value was -2.22.
With “HMATKEQIKRIYGLGAGLGIVGKDKDDMLHELIFSITGKDSVKQLDDSEFKAVQAELINRMKLA” the “soluble fraction (log2)” value was 0.0958.
For “HMATLAVPNLMRLSQGEAMALIRLSGLSIGNVSIDSSMGSPRVIRQEPQASGGMLVLTQGDQVHLWLEGP”, the “soluble fraction (log2)” value was -3.75.
With “HMATLQLPVPKITLYPGELIRSDHLTDQRFNARALYHSAVYKSREDIVGKVARRTLLPGQPIPVNALR” the “soluble fraction (log2)” value was -1.07.
With “HMATPKRGFRKQLAPLVQSGTITREEAGELSRSSGDATALRTKIGELMKAGKLTRKEAGELYSDAFPENA” the “soluble fraction (log2)” value was 0.145.
For “HMATPYISMAGIGKSFGPVHALKSVNLTVYPGEIHALLGENGAGKSTLMKVLSGIHEPTKGTITINNIN”, the “soluble fraction (log2)” value was 0.458.
In the case of “HMATRAEQMAKTHQAILDTARELFLRNGYDATSTRDIANAIGITQPALYHHFKDKEVIFLAVI”, the “soluble fraction (log2)” value is reported as -0.107.
In the case of “HMATSLTEQEKLIFGLLKKQSPIELSSLKEQAGLSNKKWDKAIKGLSTQQLAKVTKTENGLFVHLLQ”, the “soluble fraction (log2)” value is reported as 0.00913.
In the case of “HMATTAGIEKYLGSGLIKGIGPIYAKKIVRKFKEDTIRIIDEEPDRLLEVEGIGQKRLEIIKQAWQQQKE”, the “soluble fraction (log2)” value is reported as -0.651.
With “HMATVHVDGIQYDFSSPEQAKEFAYKWAKKHNLTWEVHGETIHIK” the “soluble fraction (log2)” value was -0.225.
For “HMATYNEVLKRLIEERKRLGLSQQEMARLVHITQSNYSKVEKGLHRLSYEELKYLSKANVDIFYILT”, the “soluble fraction (log2)” value was -0.0786.
With “HMAVANEAIANINMKEVKQAIHNLPEIFKNPFLLYFDGYKYHEIAEMLDEPLGTIKSRIHFARKLLKSHI” the “soluble fraction (log2)” value was -0.889.
For “HMAVDVNKATAAELDSIKGIGPAISAKILEEKKKGGNFKDWNDLVTRVSGVGEANAAKFSSEGLTVGGAS”, the “soluble fraction (log2)” value was 0.0168.
In the case of “HMAVELPLETTLDIVRKYARNQEVDRRAERVEAVSAEALQTLAPRGTKLASEIVEQAKTQVLEELA”, the “soluble fraction (log2)” value is reported as 0.476.
With “HMAVKYTKDDFLYTEKPYEAIYDYKNDPFMHNLKIEQMAQQAAEVGVKTFKGLYKNYVKMREMQRGANV” the “soluble fraction (log2)” value was 0.0263.
With “HMAVNSALVQRNWLIGYRIAEEELQGDNRAEYGASIIKKLAKELTAEYGKGYTKTNLYHFYSFYKT” the “soluble fraction (log2)” value was -0.0399.
In the case of “HMAVNVNGIHLSSQQHEALVSIWRTGRMPEPHAGQKPWLWIQALRRRGLVSGNALRLTDKGRHIVQLLQ”, the “soluble fraction (log2)” value is reported as -0.288.
With “HMAVPAALVQAWLELSRRMVAGTQDVGERFAEEARKMHYGETEDRGIRGQATLTEVRDLLDEGIEVLPLLL” the “soluble fraction (log2)” value was -0.439.
In the case of “HMAVPLVRGTVTSSVGTVLLLSVGERDFFLSEGEEKDGVLLQSLSEKSAVVVVSGRAYTLSL”, the “soluble fraction (log2)” value is reported as -4.42.
For “HMAVRLADMAAEKIRKMIIENKFDAGEPLSEMRLAEMFNVSRTPIREAIAILEQEGLLTTVHGKGAFIS”, the “soluble fraction (log2)” value was -0.896.
For “HMAVSDAAEEYGKAGTPLVILAGKEYGSGSSRDWAAKGPYLQGVRAVLAESYERIHRSNLVGMGIVPLTYK”, the “soluble fraction (log2)” value was 0.18.
With “HMAVSDPTAGGIKALMYPNPAQDRLSVALDIPAGLDKQAQMTVTDMMGRVVTQQQVTLNDGFQVFEL” the “soluble fraction (log2)” value was 0.268.
With “HMAVSSYSVKRYIRNMIQAEDPSAPFSDEALRLALLAHGIAVSRRVVTKYRMAMDIPSSSQRRKR” the “soluble fraction (log2)” value was -1.41.
With “HMAVSTFGRITASSLNVRSGPSTDHEKVGSLAAGRVVELLEESDGWYRIENGYISTEYVTIVDPSQ” the “soluble fraction (log2)” value was -0.715.
With “HMAVTEVKTTAVVNMRSSDSEKADKLGKAQIGDTFRVLEQRANGWTKLTDGTQEFFIKSEYLEAIA” the “soluble fraction (log2)” value was 0.109.
With “HMAVVAPLAGSVARVLVADGDEIEAGQVLLVLEAMKMETEITAPKAGKVGAILVGKGDSVQGGQGLR” the “soluble fraction (log2)” value was -0.18.
For “HMAYLTGFHAIEELIRAGKAKGPLLVANAGPRARTIMSLATDNKIRIDRLGEHELNRLAPGNRGIALYVE”, the “soluble fraction (log2)” value was -0.898.
With “HMDAAYVYVIGTRVNQRAGPSTSNAVMGVLSEGTRVETLRDEGQWTQIRSNFGTGWMSSSFLSSVAP” the “soluble fraction (log2)” value was -1.28.
For “HMDADRILHKTLKPRELEIYQLIKAYLEEHSQIANAKVQEISGLSEATTRRYLNIFVEFGLLKTS”, the “soluble fraction (log2)” value was -0.214.
With “HMDADTVGQIRVVKQILDDGRLIVVDASGNPVLVRRSSALSLTAISQGDRIIVDPSVRLAIELLPNE” the “soluble fraction (log2)” value was -0.637.
In the case of “HMDAEELNSKAKDEFTWLEDDESETNLEYRKMVSSEDMAIVAKVAPALAAKLKYQLAHAATNMV”, the “soluble fraction (log2)” value is reported as 0.149.
With “HMDAEVEHLFRIIAELKEKNVAIIYISHKMDEIFRISDDITVYRDGEYIATDRAENLNVDKVIQLMVGREV” the “soluble fraction (log2)” value was -0.429.
With “HMDAEWRTLTLAPEQHQQRLDRALADSLPEFSRSYVQQLIDTGMVRVNGVLAAKSAQRVKALDQVQVELR” the “soluble fraction (log2)” value was -0.411.
With “HMDAGIVVPDTYNKPLAEAVASLEGEGFRTEKKEGYSDTVAKGNVMSQNPEAGTNAERGSTVTIVISQGPQ” the “soluble fraction (log2)” value was 0.455.
For “HMDAINYEDFQLLIKQRGSFKVAFEDIMFSTKVAIEKKEDFYDFVTKLIDNGFNNMAYNYLEGFQD”, the “soluble fraction (log2)” value was -2.07.
With “HMDAISYTQFMEEAKQGRINKVEVQGRTLMVTPTDGKAYSLTSPGDLWMTTDLMKYGVNVYGAE” the “soluble fraction (log2)” value was 0.0525.
In the case of “HMDALKAVYQWVTRTMMKNQTGVMQTLPNRDLIELNTQITAQRLMQAGVDPTTLKNANQVENAVNIIESR”, the “soluble fraction (log2)” value is reported as -0.69.
With “HMDAMGAVGIARAFISAGERGGDISDGLEHMHGKLLRLSSLMYTRSGKKMAARRHELLSSFVQALEEEIK” the “soluble fraction (log2)” value was -0.327.
For “HMDAMQAFPNPTVDEIHFVTPTTGRVYNAHGQLVMVLKNAQLVNVRQWSAGQYVIVREDGYAVRWIK”, the “soluble fraction (log2)” value was -1.3.
In the case of “HMDAPQRVTYLLPHSRGEVVSWLHRQGEVVAQEYEAEGVRVVVDLRYAQIRQAAKQFDVLPAEG”, the “soluble fraction (log2)” value is reported as -1.24.
For “HMDAPRFAAGDAVRVAGLVSKPQHNGRAGSVLSYDPVSLRYIVKVDGEDEPLKLKPENVLMPA”, the “soluble fraction (log2)” value was 0.11.

Reference: the domain aggregation screens of Martell et al. (2025)
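Note: 20 min heating vs room temperature control held 20 min.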
